The test concerns the target PCNA-WT (Proliferating Cell Nuclear Antigen, wild type) (human, UniProt P12004 1-261). Kind of test: ITC. (In ITC the heat of successive injections is recorded.)

Sequence of PCNA-WT (Proliferating Cell Nuclear Antigen, wild type) (P12004 whole entry): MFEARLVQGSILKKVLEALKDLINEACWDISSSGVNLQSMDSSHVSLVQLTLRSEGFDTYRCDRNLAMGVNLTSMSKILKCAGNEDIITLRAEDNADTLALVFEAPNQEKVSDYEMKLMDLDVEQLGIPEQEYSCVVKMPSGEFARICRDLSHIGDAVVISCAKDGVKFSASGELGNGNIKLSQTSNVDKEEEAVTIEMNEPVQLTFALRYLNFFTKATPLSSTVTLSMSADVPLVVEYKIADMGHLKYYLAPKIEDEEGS

Take KANRQVSITGFFQRK [pol δ p66 PIP-box peptide]: the binding result is given as “binds”.
As for DKSGMKSIDTFFGVKNKKKIGKV [RNaseH2B PIP-box peptide], the entry is “binds”; as for STQGRLDDFFKVTGSL [FEN1 PIP-box peptide], “binds”.
